We go through one molecule from article PMC7382501.

The data set has as its target FasR full-length (crystallisation) (Mycobacterium tuberculosis H37Rv, UniProt O05858 1-228). The experiment in a line: X-ray crystallography. The conditions noted are these: protein: recombinant; tags: N-terminal His6-TEV, likely cleaved with TEV; chain copies: 2; blunt.

B1: Pfas25nt (FwPfas25nt/RvPfas25nt) (dsDNA)
DNA 1: TACCCGTACGTAGAACTCGCCAGTA
DNA 2: TACTGGCGAGTTCTACGTACGGGTA
As for B1, the binding result is reported as “binds”.
